# Measured values: patent US20220323607A1, “SYNTHETIC NANOCARRIERS COMPRISING AN IMMUNOSUPPRESSANT IN COMBINATION WITH HIGH AFFINITY IL-2 RECEPTOR AGONISTS TO ENHANCE IMMUNE TOLERANCE” (Selecta Biosciences, Inc., priority 2021, published 2022)
# B1: ovalbumin (protein, UniProt P01012 2-386, looked up)
# Ovalbumin: GSIGAASMEFCFDVFKELKVHHANENIFYCPIAIMSALAMVYLGAKDSTRTQINKVVRFDKLPGFGDSIEAQCGTSVNVHSSLRDILNQITKPNDVYSFSLASRLYAEERYPILPEYLQCVKELYRGGLEPINFQTAADQARELINSWVESQTNGIIRNVLQPSSVDSQTAMVLVNAIVFKGLWEKAFKDEDTQAMPFRVTEQESKPVQMMYQIGLFRVASMASEKMKILELPFASGTMSMLVLLPDEVSGLEQLESIINFEKLTEWTSSNVMEERKIKVYLPRMKMEEKYNLTSVLMAMGITDVFSSSANLSGISSAESLKISQAVHAAHAEINEAGREVVGSAEAGVDAASVSEEFRADHPFLFCIKHIATNAVLFFGRCVSP
# System: Ovalbumin-specific OTII T cells
# Experiment: Adoptive transfer of ovalbumin-specific OTII T cells, Foxp3 expression (Example 5)
# Type: in vivo
# Details: mice with adoptively transferred OTII T cells; starting from ~3%
# Method: However, expansion of antigen-specific Treg can be more desirable than expansion of total Treg. The ability of ImmTOR plus antigen combined with IL-2 mutein to induce and/or expand antigen-specific Treg was evaluated. Ovalbumin-specific OTII T cells were adoptively transferred into mice prior to treatment with ovalbumin and ImmTOR and/or IL-2 mutein.
molecule,measurement,value
B1,percentage of Foxp3+ OTII cells,~6%
